# Results as given in PMC7821230.
# Biological target: BCL‐xL (UniProt Q07817)
# Assay: crystal structure; co-crystals of Affimer and target, solved by molecular replacement with Phaser
substance,measurement,value
BCL‐xL (from UniProt Q07817-1 1-233) (natural protein),stoichiometry N,2
